Consider three molecules from PMC5173139, “Dual inhibition of ErbB1 and ErbB2 in cancer by recombinant human prolidase mutant hPEPD-G278D” (Oncotarget, 2016).

Residue numbers refer to the chain shown, from its start. Numbers in names are those of the source.

The target of one experiment is ErbB2 (Homo sapiens) (UniProt P04626). The note with it: cited from earlier work.
Another experiment concerns the target ErbB1 ECD (Homo sapiens) (UniProt P00533). The note with it: cited from earlier work.
Experiment [1] concerns the target human ErbB1 mutant lacking ECD subdomain 4 (aa #481-620) (human) (UniProt P00533). As to the kind of experiment: ELISA; as a1 but with lysates of CHO-K1 cells transiently transfected for 24 h with wild-type ErbB1 or a subdomain deletion mutant; equal amounts of ErbB1 protein by immunoblot densitometry. (In general: In an ELISA, binding on a coated surface is turned into a signal by an enzyme label.)

The target of experiment [2] is human ErbB1 mutant lacking ECD subdomain 1 (aa #1-165) (human) (UniProt P00533). The experiment is described as above.
Experiment [3] deals with human ErbB1 mutant lacking ECD subdomain 3 (aa #311-480) (human) (UniProt P00533). Described as above.
Experiment [4] has as its target T1, human ErbB1, full length, stably expressed in CHO-K1 cells (CHO-K1/ErbB1) (human, UniProt P00533 25-1210).
T1 construct: human ErbB1 (EGF receptor), full length; source: CHO-K1, stably transfected (pCMV6-A-ERBB1-Puro, puromycin selection), in lysate
As to the kind of experiment: ELISA; wells coated with an antibody to the cytoplasmic tail of ErbB1; serially diluted His-tagged hPEPD or mutant plus CHO-K1/ErbB1 cell lysate (25 ug total protein), 37 C, 2 h; bound PEPD detected by biotin-conjugated anti-His antibody and streptavidin-HRP; CHO-K1 lysate as control. Conditions: one partner purified.

Take prolidase (PEPD) (from UniProt P12955): the Kd is 7.3 nM with ErbB2 (Homo sapiens) and 5000 nM in the experiment with ErbB1 ECD (Homo sapiens).

B1: hPEPD-G278D, enzymatically inactive mutant of recombinant human prolidase (enzyme)
chain: MAAATGPSFWLGNETLKVPLALFALNRQRLCERLRKNPAVQAGSIVVLQGGEETQRYCTDTGVLFRQESFFHWAFGVTEPGCYGVIDVDTGKSTLFVPRLPASHATWMGKIHSKEHFKEKYAVDDVQYVDEIASVLTSQKPSVLLTLRGVNTDSGSVCREASFDGISKFEVNNTILHPEIVECRVFKTDMELEVLRYTNKISSEAHREVMKAVKVGMKEYELESLFEHYCYSRGGMRHSSYTCICGSGENSAVLHYGHAGAPNDRTIQNGDMCLFDMDGEYYCFASDITCSFPANGKFTADQKAVYEAVLRSSRAVMGAMKPGVWWPDMHRLADRIHLEELAHMGILSGSVDAMVQAHLGAVFMPHGLGHFLGIDVHDVGGYPEGVERIDEPGLRSLRTARHLQPGMVLTVEPGIYFIDHLLDEALADPARASFLNREVLQRFRGFGGVRIEEDVVVTDSGIELLTCVPRTVEEIEACMAGCDKAFTPFSGPK
Turning to B1, the fold reduction of binding affinity (Kd) against wild-type ErbB1 was found to be 1.4 fold in experiment [1], 19.2 fold in experiment [2] and 7.4 fold in experiment [3].

B2: recombinant human prolidase (peptidase D), hPEPD (enzyme, UniProt P12955 1-493, looked up)
chain: B1 chain with D278G
notes: source: E. coli, as previously described [13, 17]; not shown: His tag, C-terminal, kept
B2: in experiment [4], the Kd stood at 17.7 nM.

The term Kd denotes a measure of binding affinity in units of concentration.
